{"source": "patent CN111662379A", "about": "(JIANGSU DISEASE CONTROL AND PREVENTION CENTER JIANGSU …, dated 2020)", "binders": {"B1": {"name": "FC05 (antibody, V domains shown)", "VH": "VQLLEQSGAEVKKPGASVRVSCKVSGYTLPEVAMHWVRQAPGKGLEWMGGFDPEDGETIYAQKFQGRVTMTEDTSTDTAYMELSSLRSEDTAVYYCATTTPFSSSFWFDPWGQGTLVTVSS", "VL": "QSVLTQAPSVSGAPGQKVTISCSGSSSNIGNNYVSWYQQLPGTAPKLLIYDNNKRPSGIPDRFSGSKSGTSATLGITGLQTGDEADYYCGTWDSSLSAVVFGGGTKLTVL"}, "B2": {"name": "FC08 (antibody, V domains shown)", "VH": "VQLLQQSGAEVKKPGSSVKVSCKASGGTFSSYAISWVRQAPGQGLEWMGGIIPILGIANYAQKFQGRVTITADKSTSTAYMELSSLRSEDTAVYYCVRERGYSGYGAAYYFDYWGQGTLVTVSS", "VL": "QSVLTQPPSVSGAPGQRVTISCTGSSSNIGAGYDVHWYQQLPGTAPKLLIYGNSNRPSGVPDRFSGSKSGTSASLAITGLQAEDEADYYCQSYDSSLSGSVFGGGTKLTVL"}, "B3": {"name": "FC11 (antibody, V domains shown)", "VH": "EVQLLESGGGVVQPGRSLRLSCAASGFTFSYYGMHWVRQAPGTGLEWVAVISYDGSNEYYADSVKGRFTISRDNSKNTLYLQMNSLRAEDTAVYYCAKAMFLGDSSGLTGLDMDVWGQGTTVTVSS", "VL": "DIELTQSPGTLSLSPGERATLSCRASQSVSSYLAWYQQKPGQAPRLLIYDASNRATGIPARFSGSGSGTDFTLTISSLEPEDFALYYCQQRGNWPPTFGGGTKLEIK", "notes": "also called FC11抗体"}}, "key": {"[1]": {"biological_target": "SARS-CoV-2 S蛋白 (on live virus, 江苏分离株 BetaCoV/JS03/human/2020) (SARS-CoV-2, UniProt P0DTC2 14-1273)", "test": "cell-based or functional assay"}, "[2]": {"biological_target": "重组SARS-CoV-2刺突蛋白胞外区 (extra cellular domain of spike protein, S-ECD) (SARS-CoV-2, UniProt P0DTC2 14-1213)", "test": "SPR, Biacore 8K, S-ECD immobilised on a CM5 chip, antibody injected at 125nM~7.8nM"}, "[3]": {"biological_target": "重组SARS-CoV-2刺突蛋白胞外区 (extra cellular domain of spike protein, S-ECD) (SARS-CoV-2, UniProt P0DTC2 14-1213)", "test": "SPR, Biacore 8K, S-ECD immobilised on a CM5 chip, antibody injected at 125nM~7.8nM", "remark": "listed apart in the source"}}}
{"binder": "B1", "values": [{"measurement": "IC50 (体外中和实验, live SARS-CoV-2 on Vero E6 cells, cytopathic effect)", "setting": "[1]", "value": 142, "unit": "ng/mL"}]}
{"binder": "B2", "values": [{"measurement": "Kd", "setting": "[2]", "value": 0.8, "unit": "nM"}]}
{"binder": "B3", "values": [{"measurement": "Kd", "setting": "[3]", "value": 0.5, "unit": "nM"}]}
